This assay deals with GltPh, archaeal homolog of excitatory amino acid transporters from Pyrococcus horikoshii (Pyrococcus horikoshii) (UniProt O59010). Briefly: high-speed atomic force microscopy (HS-AFM) imaging; purified GltPh reconstituted in DOPC/DOPE/DOPS 8:1:1 membranes, spread on mica, imaged in buffer solution in amplitude modulation mode; unlabeled protein.

Take “GltPh, archaeal homolog of excitatory amino acid transporters from Pyrococcus horikoshii (from UniProt O59010 1-425) (natural protein)”: the stoichiometry N stood at 3.

Source of the values: article PMC7538599.
